Measurements taken from US20110287000A1 (published 2011).
Where a chain is given by its changes, count along the chain named. One block for each molecule: values may come before it.

T1: recombinant human CD127 extracellular domain (CD127 ECD) (human, UniProt P16871 21-219)
T1 construct: The assays only say 'recombinant human CD127 ECD'; also called IL-7Rα EDC; IL-7Rα
T1 chain: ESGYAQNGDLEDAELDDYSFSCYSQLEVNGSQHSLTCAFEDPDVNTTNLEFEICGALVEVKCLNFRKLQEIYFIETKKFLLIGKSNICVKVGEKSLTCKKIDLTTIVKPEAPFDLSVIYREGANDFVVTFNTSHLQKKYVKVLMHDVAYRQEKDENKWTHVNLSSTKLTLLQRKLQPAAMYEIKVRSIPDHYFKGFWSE

T2: recombinant human IL-7 (human, UniProt P13232 26-177)
T2 sequence (looked up): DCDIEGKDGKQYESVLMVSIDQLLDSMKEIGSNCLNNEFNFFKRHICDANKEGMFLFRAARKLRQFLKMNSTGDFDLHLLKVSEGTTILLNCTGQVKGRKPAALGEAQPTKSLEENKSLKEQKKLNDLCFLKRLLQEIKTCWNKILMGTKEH

B1: mAb 6C5 (murine anti-human CD127 monoclonal antibody) (antibody, mouse IgG1, V domains shown)
VH: EVKLLESGGGLVQPGGSLKLSCAASGFAFSAYWMSWVRQAPGKGLEWIGEINPDSSTINCTPSLKDKFIISRDNAKNTLSLQMNKVRSEDTALYYCARRLRPFWYFDVWGAGTTVTVSS
VL: DVLMTQTPLSLPVSLGDQASISCRSSQSIVQSNGNTYLEWYLQKPGQSPKLLIYKVSNRFSGVPDRFSGSGSGTDFTLKISRVEAEDLGVYYCFQGSHVPRTFGGGTKLEIK
notes: also called antibody 6C5
B2: mAb 6A3 (murine anti-human CD127 monoclonal antibody) (antibody, mouse IgG1, V domains shown)
VH: DVQLQESGPGLVKPSQSLSLTCTVTGYSITTDYAWNWIRQFPGNKLEWMGYIFYSGSTTYTPSLKSRISITRDTSKNQFFLQLNSVTTEDTATYYCARGGYDVNYFDYWGQGTTLTVSS
VL: DIQMTQSPASQSASLGESVTITCLASQTIGAWLAWYQQKPGKSPQLLIYAATRLADGVPSRFSGSGSGTKFSFKISSLQAEDFVSYYCQQFFSTPWTFGGGTKLEIK
notes: also called antibody 6A3
B3: mAb 9B7 (murine anti-human CD127 monoclonal antibody) (antibody, IgG1, V domains shown)
VH: QVQLQESGPGLVAPSQSLSITCTVSGFSLSRYNVHWVRQPPGKGLEWLGMIWDGGSTDYNSALKSRLSITKDNSKSQVFLKMNSLQTDDTAMYYCARNRYESGMDYWGQGTTVTVSS
VL: DIVMTQTPSSLTVTAGEKVTMSCKSSQSLLNSGNRKNYLTWYQQKPGQSPKLLIYWASTRESGVPDRFTGSGSGTDFTLIISSVQAEDLAVYYCQNDYTYPFTFGSGTKLEIKR
notes: Mouse hybridoma antibody; also called antibody 9B7; clone 9B7
B4: human CD127 (IL-7Rα) expressed on cells (CD127-transfected CHO cells; PBMC / CD4+ T cells in functional assays) (receptor)
chain: ESGYAQNGDLEDAELDDYSFSCYSQLEVNGSQHSLTCAFEDPDVNTTNLEFEICGALVEVKCLNFRKLQEIYFIETKKFLLIGKSNICVKVGEKSLTCKKIDLTTIVKPEAPFDLSVIYREGANDFVVTFNTSHLQKKYVKVLMHDVAYRQEKDENKWTHVNLSSTKLTLLQRKLQPAAMYEIKVRSIPDHYFKGFWSEWSPSYYFRTPEINNSSGEMDPILLTISILSFFSVALLVILACVLWKKRIKPIVWPSLPDHKKTLEHLCKKPRKNLNVSFNPESFLDCQIHRVDDIQARDEVEGFLQDTFPQQLEESEKQRLGGDVQSPNCPSEDVVVTPESFGRDSSLTCLAGNVSACDAPILSSSRSLDCRESGKNGPHVYQDLLLSLGTTNSTLPPPFSLQSGILTLNPVAQGQPILTSLGSNQEEAYVTMSSFYQNQ
notes: The construct transfected into CHO is not described further; The same entry is used for native CD127 on human PBMC/T cells in functional rows; also called CHO-CD127; IL-7Rα expressed on CHO
B5: mAb 1A11 (murine anti-human CD127 monoclonal antibody) (antibody, mouse IgG1, V domains shown)
VH: EVQLQQSGPELLKPGASMKISCKASGYSFTGYTMNWVKQSHGKNLEWIGLINPYNGVTSYNQKFKGKATLTVAKSSSTAYMELLSLTSEDSAVYYCARGDGNYWYFDVWGAGTTVTVSS
VL: EIVLTQSPAITAASLGQKVTITCSASSSVTYMHWYQQKSGTSPKPWIYEISKLASGVPVRFSGSGSGTSYSLTISSMEAEDAAIYYCQEWNYPYTFGGGTKLEIK
notes: also called antibody 1A11
B6: mAb GR34 (reverse engineered clone of R34.34) (antibody, mouse IgG1, V domains shown)
VH: B5 VH with L12V, N55S, V57I, K63N, A73D, S85N
VL: B5 VL with V3I, T30S, V59A, E89Y
notes: also called antibody GR34

What was measured:
[1] = molecular target: recombinant human CD127 extracellular domain (CD127 ECD) (human) (UniProt P16871); test: SPR (profile summary)
[2] = molecular target: recombinant human CD127 extracellular domain (CD127 ECD) (human) (UniProt P16871); test: BIAcore blocking assay: inhibition ratio of CD127 ECD binding to immobilised IL-7 against antibody concentration
[3] = molecular target: recombinant human CD127 extracellular domain (CD127 ECD) (human) (UniProt P16871); test: blocking of IL-7/IL-7Rα binding, competitor IL-7; format not given
[4] = molecular target: human CD127 (IL-7Rα) expressed on cells (CD127-transfected CHO cells; PBMC / CD4+ T cells in functional assays) (human) (UniProt P16871); test: binding to CHO cells expressing IL-7Rα (flow cytometry)
[5] = molecular target: human CD127 (IL-7Rα) expressed on cells (CD127-transfected CHO cells; PBMC / CD4+ T cells in functional assays) (human) (UniProt P16871); test: cell-based or functional assay
[6] = molecular target: T1, recombinant human CD127 extracellular …; test: SPR, Biacore T100, 25° C.; antibody captured on rabbit anti-mouse IgG, CD127 ECD as analyte
Procedure: Antibody kinetics were assessed using a Biacore T100 system (GE Healthcare) with a reaction temperature of 25° C. Rabbit anti-mouse IgG antibody was immobilized on a CM5 biosensor chip with a final level of […] (response units) using the standard amine coupling kit and procedure. HBS-EP buffer pH 7.4 (consisting of 10 mM HEPES, 0.15 M sodium chloride, 3 mM EDTA and 0.005% v/v surfactant P20) was used as running buffer. Sensograms were run against a reference cell that was blank immobilized using EDC/NHS/ethanol amine. […] The sensor chip surfaces were regenerated with 10 mM Glycine-HCl, pH 1.7. Kd values were calculated using the Biacore evaluation software package.

[7] = molecular target: B4; test: cell-based or functional assay
[8] = molecular target: T1, recombinant human CD127 extracellular …; test: blocking of IL-7/IL-7Rα binding, competitor IL-7; format not stated in the sentence (BIAcore neutralising assay with immobilised IL-7 is described in 2.11)
[9] = molecular target: T1, recombinant human CD127 extracellular …; test: BIAcore blocking assay: inhibition ratio of CD127 ECD binding to immobilised IL-7 against antibody concentration
Procedure: HBS-EP buffer pH 7.4 (consisting of 10 mM HEPES, 0.15 M sodium chloride, 3 mM EDTA and 0.005% v/v surfactant P20) was used as running buffer. Sensograms were run against a reference cell that was blank immobilized using EDC/NHS/ethanol amine. […] After each injection the sensor chip surfaces were regenerated with 10 mM Glycine-HCl, pH 2.0. […] Inhibition ratio calculated as follows: Inhibition ratio=1−RU(sample)/RU(ECD).

[10] = molecular target: B4; test: binding to CHO cells expressing IL-7Rα (flow cytometry)
[11] = molecular target: T1, recombinant human CD127 extracellular …; test: SPR (profile summary; differs from Table 3)
[12] = molecular target: T1, recombinant human CD127 extracellular …; test: SPR, Biacore T100; CD127 ECD immobilised on CM5, 9B7 hybridoma supernatant as analyte; table title says 37° C.
Procedure: HBS-EP buffer pH 7.4 (consisting of 10 mM HEPES, 0.15 M sodium chloride, 3 mM EDTA and 0.005% v/v surfactant P20) was used as running buffer. […] Kd values were calculated using the Biacore evaluation software package.

[13] = molecular target: T1, recombinant human CD127 extracellular …; test: ELISA, recombinant human CD127 ECD coated on the plate, detection with HRP goat anti-mouse IgG
Excerpt: Anti-CD127 antibodies from the test hybridoma supernatants or purified material were titrated across the plate. The level of binding was detected by treatment with a horse-radish peroxidase (HRP) -conjugated goat-anti-mouse IgG antibody. The ELISA was developed using TMB substrate.

recombinant human IL-7 = molecular target: T2, recombinant human IL-7; test: flow cytometry competition on CHO-CD127 cells: pre-incubation with IL-7, then staining with 6A3 (competitor read out: 6A3)
Procedure: After the incubation, anti-CD127 antibodies were added and the incubation continued for additional 30 min in 4% FCS in DPBS (FACS buffer). Afterward cells were washed in FACS buffer 3 times and stained with anti-mouse IgG ALEXA488 secondary antibody at 1:2000 dilution (Invitrogen Inc. #13-A11017).

[14] = molecular target: T1, recombinant human CD127 extracellular …; test: blocking of IL-7/IL-7Rα binding, competitor IL-7; format not given

Kd [1]: 7.74 nM
IC50 (read off the curve) [2]: 3 µg/mL
IC50 [3]: 1.38 µg/mL
EC50 [4]: 0.01 µg/mL
IC50 of inhibition of pSTAT5 signalling [5]: 0.67 µg/ml
IL-17 production in IL-7 induced differentiated T cells (CCR6+ TH17), donors with inhibition [5]: 6 of 6 donors
Molecule: R34.34 (Dendritics Inc. #DDX0700), commercial anti-human CD127 antibody

Molecule: B1
Kd [6]: 24.4 nM
koff [6]: 0.000436 s⁻¹
kon [6]: 17900 M⁻¹ s⁻¹
IC50 of inhibition of pSTAT5 signalling [7]: 50 µg/ml

Molecule: B2
IC50 [8]: 1.92 µg/mL
IC50 (read off the curve) [9]: ~2 µg/mL
Kd [6]: 7.74 nM
koff [6]: 0.000146 s⁻¹
kon [6]: 18900 M⁻¹ s⁻¹
IC50 of inhibition of pSTAT5 signalling [7]: 0.099 µg/ml
EC50 [10]: 0.19 µg/mL
Kd [11]: 7.99 nM
koff [11]: 0.000334 s⁻¹

Molecule: B3
Kd [12]: 0.556 nM
EC50 (read off the curve) [13]: ~0.6 µg/mL

Molecule: B4
binding result (recombinant human IL-7): binds

Molecule: B5
Kd [6]: 3.44 nM
koff [6]: 0.000251 s⁻¹
IC50 of inhibition of pSTAT5 signalling [7]: 0.088 µg/ml
IC50 [14]: 1.79 µg/mL
EC50 [10]: 0.16 µg/mL

Molecule: B6
Kd [6]: 15.3 nM
koff [6]: 0.000875 s⁻¹
IC50 of inhibition of pSTAT5 signalling [7]: 0.22 µg/ml
IC50 [14]: 2.29 µg/mL
EC50 [10]: 0.27 µg/mL
